Assay [1] addresses human PTK7 on human cancer cell lines (human) (UniProt Q13308). Description: flow cytometry, PC-3 cells, isotype control.
For assay [2] the target is unchanged. The experiment in a line: flow cytometry, A-431 cells, isotype control.
For assay [3] the target is unchanged. The experiment in a line: flow cytometry, BT-20 cells, isotype control.
The target is the same in assay [4]. The experiment in a line: flow cytometry, HCT116 cells, isotype control.
For assay [5] the target is unchanged. Description: flow cytometry, HCC1954 cells, isotype control.
Assay [6] shares this target. The experiment in a line: flow cytometry, NCI-N87 cells, isotype control.
For assay [7] the target is unchanged. The experiment in a line: flow cytometry, SK-OV-3 cells, isotype control.
Assay [8] deals with dog PTK7 on dog cancer cell lines (dog). Description: flow cytometry, D-17 dog cells, isotype control.
In assay [9] the target is human PTK7 on human cancer cell lines (human) (UniProt Q13308). Description: flow cytometry, NCI-H226 cells, isotype control.
human PTK7 on human cancer cell lines (human), sequence (Q13308 31-1070 limits assumed): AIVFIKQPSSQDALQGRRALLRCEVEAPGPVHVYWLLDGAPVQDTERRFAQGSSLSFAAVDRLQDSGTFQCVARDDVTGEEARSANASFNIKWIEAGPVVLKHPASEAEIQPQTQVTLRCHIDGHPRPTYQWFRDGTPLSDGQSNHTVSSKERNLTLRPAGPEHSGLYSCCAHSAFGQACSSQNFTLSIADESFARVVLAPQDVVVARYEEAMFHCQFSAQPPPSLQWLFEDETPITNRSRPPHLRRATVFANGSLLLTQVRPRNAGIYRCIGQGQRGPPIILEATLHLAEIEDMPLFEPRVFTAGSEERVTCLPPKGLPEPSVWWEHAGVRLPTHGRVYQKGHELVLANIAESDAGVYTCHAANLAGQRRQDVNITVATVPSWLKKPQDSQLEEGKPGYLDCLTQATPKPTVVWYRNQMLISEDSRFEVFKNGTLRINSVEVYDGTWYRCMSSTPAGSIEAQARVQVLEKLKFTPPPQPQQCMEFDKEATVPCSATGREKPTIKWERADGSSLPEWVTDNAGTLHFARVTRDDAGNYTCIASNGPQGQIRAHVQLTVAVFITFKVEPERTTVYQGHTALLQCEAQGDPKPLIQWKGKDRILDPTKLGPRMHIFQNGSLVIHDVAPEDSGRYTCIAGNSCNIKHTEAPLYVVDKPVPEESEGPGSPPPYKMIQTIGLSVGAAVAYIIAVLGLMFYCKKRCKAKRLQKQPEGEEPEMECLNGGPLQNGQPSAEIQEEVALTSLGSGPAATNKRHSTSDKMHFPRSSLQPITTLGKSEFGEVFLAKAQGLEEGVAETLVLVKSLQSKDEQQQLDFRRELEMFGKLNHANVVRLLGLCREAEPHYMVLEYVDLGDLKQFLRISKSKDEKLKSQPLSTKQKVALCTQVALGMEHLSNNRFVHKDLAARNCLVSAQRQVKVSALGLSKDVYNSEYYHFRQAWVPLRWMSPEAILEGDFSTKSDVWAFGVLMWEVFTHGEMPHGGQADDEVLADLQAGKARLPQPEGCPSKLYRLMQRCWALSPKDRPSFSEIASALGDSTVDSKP
Assay [10] has the same target. The experiment in a line: flow cytometry, NCI-H292 cells, isotype control.
Assay [11] shares this target. Description: flow cytometry, NCI-H358 cells, isotype control.
The target is the same in assay [12]. Description: flow cytometry, NCI-H520 cells, isotype control.
The target in assay [13] is dog PTK7 on dog cancer cell lines (dog). Description: flow cytometry, CMT-U27 dog cells, isotype control.

As for Human IgG1 (ISO control) (antibody), the MFI worked out at 3690 in [1]; 4630 in assay [2]; 5920 in assay [3]; 3110 in assay [4]; 6340 in assay [5]; 2850 in [6]. For the same substance, the MFI in [7] is 3860; in assay [8], 3520; in [9], 9840; in assay [10], 2230; in assay [11], 3360; in assay [12], 2420. Also, in assay [13], the MFI was 1650.

These data come from patent US20260250421A1.
